From patent US20030166872A1 (APPLIED MOLECULAR EVOLUTION, published 2003)
Numbering of substitutions follows the chain as printed.

Key:
[1] = biological target: T1, integrin αVβ3 (human), P06756; experiment: SPR (BIAcore)
T1 chain 1: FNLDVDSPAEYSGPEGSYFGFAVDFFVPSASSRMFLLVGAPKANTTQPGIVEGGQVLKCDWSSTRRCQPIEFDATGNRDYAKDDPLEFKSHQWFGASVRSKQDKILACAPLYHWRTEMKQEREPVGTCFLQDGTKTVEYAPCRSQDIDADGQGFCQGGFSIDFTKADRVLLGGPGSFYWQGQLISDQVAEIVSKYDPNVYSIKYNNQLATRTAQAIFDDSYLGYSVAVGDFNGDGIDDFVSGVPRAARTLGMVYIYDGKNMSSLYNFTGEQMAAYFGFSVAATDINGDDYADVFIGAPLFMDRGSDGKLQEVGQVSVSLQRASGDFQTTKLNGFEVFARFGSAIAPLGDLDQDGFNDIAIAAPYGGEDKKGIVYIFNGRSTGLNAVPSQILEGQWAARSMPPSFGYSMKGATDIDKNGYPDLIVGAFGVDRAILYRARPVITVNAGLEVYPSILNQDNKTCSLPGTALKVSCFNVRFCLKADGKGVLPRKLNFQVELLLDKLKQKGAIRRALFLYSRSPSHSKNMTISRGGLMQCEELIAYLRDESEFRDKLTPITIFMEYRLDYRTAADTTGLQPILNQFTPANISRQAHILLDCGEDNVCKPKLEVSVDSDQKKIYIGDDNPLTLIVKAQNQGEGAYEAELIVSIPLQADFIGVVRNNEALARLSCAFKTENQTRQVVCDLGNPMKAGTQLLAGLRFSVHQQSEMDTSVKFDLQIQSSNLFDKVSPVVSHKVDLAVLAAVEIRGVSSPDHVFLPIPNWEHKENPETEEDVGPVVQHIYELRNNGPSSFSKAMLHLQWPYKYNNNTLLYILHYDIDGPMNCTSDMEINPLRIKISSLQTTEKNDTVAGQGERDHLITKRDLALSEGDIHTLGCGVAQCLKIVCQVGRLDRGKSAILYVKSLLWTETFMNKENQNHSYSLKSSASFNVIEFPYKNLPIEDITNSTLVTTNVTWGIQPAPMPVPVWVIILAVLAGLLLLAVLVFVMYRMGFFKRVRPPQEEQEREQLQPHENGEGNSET
T1 chain 2: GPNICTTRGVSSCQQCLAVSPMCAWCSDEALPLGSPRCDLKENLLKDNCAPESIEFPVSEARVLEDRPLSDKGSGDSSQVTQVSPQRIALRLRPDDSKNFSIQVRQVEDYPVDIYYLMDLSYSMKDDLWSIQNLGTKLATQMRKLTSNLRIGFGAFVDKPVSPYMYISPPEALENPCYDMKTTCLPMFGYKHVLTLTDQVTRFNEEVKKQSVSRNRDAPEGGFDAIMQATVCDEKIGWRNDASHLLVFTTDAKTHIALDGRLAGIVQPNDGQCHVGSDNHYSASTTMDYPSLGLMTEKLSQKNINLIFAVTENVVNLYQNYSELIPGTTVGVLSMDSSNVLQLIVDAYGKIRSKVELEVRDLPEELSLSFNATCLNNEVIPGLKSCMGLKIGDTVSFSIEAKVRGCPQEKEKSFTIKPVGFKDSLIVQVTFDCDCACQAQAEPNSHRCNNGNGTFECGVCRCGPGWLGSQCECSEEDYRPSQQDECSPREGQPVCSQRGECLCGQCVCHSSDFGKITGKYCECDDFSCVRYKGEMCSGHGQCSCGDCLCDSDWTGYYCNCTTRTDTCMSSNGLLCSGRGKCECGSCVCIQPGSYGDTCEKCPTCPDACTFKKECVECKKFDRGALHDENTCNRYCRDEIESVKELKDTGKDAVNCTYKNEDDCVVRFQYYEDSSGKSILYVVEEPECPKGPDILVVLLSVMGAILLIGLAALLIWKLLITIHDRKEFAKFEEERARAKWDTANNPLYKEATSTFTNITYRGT

[2] = biological target: T1, integrin αVβ3 (human), P06756; experiment: SPR (BIAcore), ratio of Kd
[3] = biological target: T1, integrin αVβ3 (human), P06756; experiment: SPR (BIAcore), Fab over immobilized αVβ3
[4] = biological target: T2, integrin αVβ3 (human, UniProt P06756 31-1048; P05106 27-788); experiment: ELISA titration of Fab on immobilized αVβ3
T2 construct: mature; biotinylated in capture lift and capture ELISA; also on M21 melanoma cells in some assays; also called vitronectin receptor; αVβ3 receptor
Experimental: For ELISA titration of Fab on immobilized αVβ₃ and the related integrins αVβ₅ and αIIbβ₃, Immulon II microtiter plates were coated with 1 μg/ml purified receptor in 20 mM Tris, pH 7.4, 150 mM NaCl, 2 mM CaCl, 1 mM MgCl₂, 1 mM MnCl₂, washed once, and blocked in 3% BSA in 50 mM Tris, pH 7.4, 100 mM NaCl, 2 mM CaCl₂, 1 mM MgCl₂ for 1 h at 25° C. […] Just prior to use, the plates were washed two times and were then incubated 1 h at 25° C. with various dilutions of Fab. […] All dilutions and washes were in 50 mM Tris-HCl, pH 7.4, 100 mM NaCl, 2 mM CaCl₂, and 1 mM MgCl₂.

[5] = biological target: T2, integrin αVβ3; experiment: SPR (BIAcore)
[6] = biological target: T2, integrin αVβ3; experiment: inhibition of binding of 0.1 µg/ml biotinylated fibrinogen to immobilized αVβ3, 3 h at 37 °C, detection with NeutrAvidin alkaline phosphatase
[7] = biological target: T2, integrin αVβ3; experiment: SPR (BIACORE), as in Example VI
Experimental: The affinities of select variants were further characterized by utilizing surface plasmon resonance (BIAcore) to measure the association and dissociation rates of purified Fab with immobilized αVβ₃. […] To obtain association rate constants (kₒₙ), the binding rate at five different Fab concentrations, ranging from 5-40 μg/ml in 50 mM Tris-HCl, pH 7.4, 100 mM NaCl, 2 mM CaCl₂, and 1 mM MgCl₂, was determined at a flow rate of 10 μl/min. Dissociation rate constants (koff) were the average of five measurements obtained by analyzing the dissociation phase at an increased flow rate (40 μl/min). Sensorgrams were analyzed with the BIAevaluation 2.1 program (Pharmacia). Residual Fab was removed after each measurement with 10 mM HCl, 2 mM CaCl₂ and 1 mM MgCl₂.

[8] = biological target: T2, integrin αVβ3; experiment: ELISA screen of the position 49 library (target printed αvβ5 here, αvβ3 in paragraph 179)
[9] = biological target: T3, integrin αVβ5 (human, UniProt P06756 31-1048; P18084 24-799); experiment: ELISA on coated integrin, detection with goat anti-human IgG alkaline phosphatase
T3 construct: mature
T3 sequence (P18084 24-799, chain 2 of 2, one chain of several): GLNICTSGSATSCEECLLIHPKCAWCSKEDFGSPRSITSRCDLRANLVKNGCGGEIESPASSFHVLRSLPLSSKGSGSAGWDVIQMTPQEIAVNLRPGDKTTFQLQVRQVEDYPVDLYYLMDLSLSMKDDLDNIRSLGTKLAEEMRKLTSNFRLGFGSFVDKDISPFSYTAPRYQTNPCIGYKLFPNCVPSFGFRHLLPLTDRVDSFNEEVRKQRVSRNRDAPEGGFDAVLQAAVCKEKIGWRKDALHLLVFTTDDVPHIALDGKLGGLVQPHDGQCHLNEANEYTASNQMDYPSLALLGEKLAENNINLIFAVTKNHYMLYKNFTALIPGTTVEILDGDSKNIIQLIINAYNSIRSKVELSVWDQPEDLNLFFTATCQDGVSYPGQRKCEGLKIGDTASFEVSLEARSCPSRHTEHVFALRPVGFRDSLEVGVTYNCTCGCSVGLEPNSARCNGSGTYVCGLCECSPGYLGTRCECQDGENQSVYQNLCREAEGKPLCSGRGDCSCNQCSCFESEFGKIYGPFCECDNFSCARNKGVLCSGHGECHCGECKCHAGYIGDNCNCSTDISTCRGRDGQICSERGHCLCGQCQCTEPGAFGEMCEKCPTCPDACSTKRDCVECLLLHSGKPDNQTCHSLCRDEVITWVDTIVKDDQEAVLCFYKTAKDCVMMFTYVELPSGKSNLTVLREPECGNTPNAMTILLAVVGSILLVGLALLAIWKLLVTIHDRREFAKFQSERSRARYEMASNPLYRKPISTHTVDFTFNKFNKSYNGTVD
Experimental: Specifically, binding specificity was assessed by measuring binding to αIIbβ₃, the major integrin expressed on platelets, and to αVβ₅ an integrin found prevalent on endothelial cells and connective tissue cell types.
Antibody binding activity was assessed by ELISA using a goat anti-human IgG-alkaline phosphatase conjugate.

B1: LM609 grafted antibody combinatorial clone V357D (Fab)
chain 1: QVQLVESGGGVVQPGRSLRLSCAASGFTFSSYDMSWVRQAPGKGLEWVAKVSSGGGSTYYLDTVQGRFTISRDNSKNTLYLQMNSLRAEDTAVYYCARHNYGSFADWGQGTTVTVSS
chain 2: EIVLTQSPATLSLSPGERATLSCQASQSISNFLHWYQQRPGQAPRLLIRYRSQSISGIPARFSGSGSGTDFTLTISSLEPEDFAVYYCQQSGSWPHTFGGGTKVEIK
modifications: not checked
fold slower dissociation rate [1]: > 10 fold
fold enhanced affinity over parent LM609 grafted antibody [2]: > 50 fold
Kd [3]: 0.5 nM
koff [3]: 0.00014 s⁻¹
kon [3]: 279000 M⁻¹ s⁻¹

B2: LM609 grafted antibody variant S51 (Fab, V domains shown)
VH: B1 chain 1 with D106Y
VL: B1 chain 2 with F32H, R51S
notes: Fab
fold enhanced binding over LM609 grafted antibody [4]: > 3 fold

B3: LM609 grafted antibody variant T27 (Fab, V domains shown)
VH: B1 chain 1 with F27T, D106Y
VL: B1 chain 2 with F32H
notes: Fab
fold enhanced binding over LM609 grafted antibody [4]: > 3 fold

B4: LM609 grafted antibody combinatorial clone C59 (Fab, V domains shown)
VH: B1 chain 1 with L61P
VL: B1 chain 2
notes: Fab
fold slower dissociation rate [5]: > 10 fold
IC50 (read off the curve) [6]: ~0.06 µg/mL

B5: LM609 grafted antibody variant Q96 (Fab, V domains shown)
VH: B1 chain 1 with D106Y
VL: B1 chain 2 with F32H, H96Q
notes: Fab
fold enhanced binding over LM609 grafted antibody [4]: > 3 fold

B6: LM609 grafted antibody combinatorial clone 6H6 (Fab, V domains shown)
VH: B1 chain 1 with Y101H, D106S
VL: B1 chain 2 with F32H, H96L
notes: Fab
fold slower dissociation rate [5]: > 10 fold
Kd [7]: 0.62 nM

B7: LM609 grafted antibody variant W29 (Fab, V domains shown)
VH: B1 chain 1 with F29W, D106Y
VL: B1 chain 2 with F32H
notes: Fab
fold enhanced binding over LM609 grafted antibody [4]: > 3 fold

B8: LM609 grafted antibody clone with Met at position 49 of the light chain (Fab, V domains shown)
VH: B1 chain 1 with D106Y
VL: B1 chain 2 with F32H, R49M
notes: From the library of 19 non-donor residues at light chain position 49
binding result [8]: binds

B9: Vitaxin (antibody, V domains shown)
VH: B1 chain 1 with D106Y
VL: B1 chain 2 with F32H, R49K
notes: also called huLM609M13 1135-4; grafted LM609
binding result [9]: no binding (tested: about 2000 ng/ml)

B10: enhanced LM609 grafted antibody clone 2236-38/6H6LH (Fab, V domains shown)
VH: B1 chain 1 with L61P, N100L, Y101H, D106S
VL: B1 chain 2 with H96L
Kd [7]: 0.9 nM

B11: LM609 grafted antibody variant T92 (Fab, V domains shown)
VH: B1 chain 1 with D106Y
VL: B1 chain 2 with F32H, G92T
notes: Fab
fold enhanced binding over LM609 grafted antibody [4]: > 3 fold
